Experimental data reported in PMC9645763.

What was measured:
[1] = system: PRC2-5m SUZ12 S583A (HEK293T) (human); assay: EMSA; conditions: EMSA: 0.5 nM nucleosome, PRC2-5m 2-fold dilutions from 2 uM, 10 mM Tris 8.0, 50 mM NaCl, 10% glycerol, on ice 30 min; 4% native gel, 1x TGE, SYBR Gold
[2] = target: mononucleosome (Xenopus laevis histone octamer on 147-bp 601 DNA) (Xenopus laevis); assay: native gel or EMSA; 0.5 nM nucleosomes with PRC2-5m (2-fold serial dilution from 2 μM), 10 mM Tris 8.0, 50 mM NaCl, 10% glycerol, on ice 30 min; 4% native polyacrylamide gel, SYBR Gold

601 mononucleosome, 147 bp showed a binding signal (fold higher Kd than WT) [1] of 2.
“PRC2-5m (EZH2–EED–SUZ12–RBBP4–AEBP2) containing the S583A mutation of SUZ12, expressed in HEK293T cells (from UniProt Q15910 1-746; O75530 1-441; Q15022 1-739; Q09028 1-425; Q6ZN18 1-295) (complex)” gave a fold reduction of the nucleosome binding affinity against the WT complex [2] of 2 fold.
